# Measured values from the supplement of paper PMC7125110.
# ± gives the standard error. For some of these results: Variants at the floor of the assay were thinned out.
# B1: glmS ribozyme (parent)
# chain: AUAAAAGCGCCAGAACUACAGAAAUGUAGUUGACGAGGAGGAGGUUUAUCGAAUUUUCGGCGGAUGCCUCCAAA
# Tests used:
# Conditions in all cases: with glucosamine-6-phosphate
# [1] = variants of: B1; assay: kcat; higher = faster cleavage; RNA array
# Procedure, shortened: (§1)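 Over ~14 h at 37 °C, tiles were imaged as glucosamine-6-phosphate (40 μM to 10 mM) in HEPES/KCl/Mg(OAc)2 buffer flowed across sequenced MiSeq chips. The chips carried barcoded ribozyme variants transcribed in situ by E. coli RNA polymerase and tracked with a hybridised Cy3 probe. After normalisation to baseline and to non-cleaving reference variants, one- or two-exponential decay fits of per-tile medians gave kobs. kcat and KM followed from weighted Michaelis–Menten fits across concentrations.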
# [2] = variants of: B1; assay: KM; higher = weaker cofactor use; RNA array
# Procedure, shortened: as §1
# [3] = variants of: B1; assay: self-cleavage kobs at 40 uM GlcN6P; higher = faster cleavage; RNA array
# Procedure, shortened: as §1
# [4] = variants of: B1; assay: self-cleavage kobs at 160 uM GlcN6P; higher = faster cleavage; RNA array
# Procedure, shortened: as §1
# [5] = variants of: B1; assay: self-cleavage kobs at 640 uM GlcN6P; higher = faster cleavage; RNA array
# Procedure, shortened: as §1
# [6] = variants of: B1; assay: self-cleavage kobs at 2500 uM GlcN6P; higher = faster cleavage; RNA array
# Procedure, shortened: as §1
# [7] = variants of: B1; assay: self-cleavage kobs at 10000 uM GlcN6P; higher = faster cleavage; RNA array
# Procedure, shortened: as §1
variant,measurement,setting,value
AUAAAAGCGCCAGAACUACAGAAAUGUAAUUGACGAGGAGGAGGUUUAUCGAAGUUUCGGCGGAUGCCUCCAAA,kcat,[1],0.00345 ± 0.00074 s⁻¹
same,KM,[2],2790 ± 830 µM
same,self-cleavage kobs at 40 uM GlcN6P,[3],5.97e-05 ± 1.1e-05 s⁻¹
same,self-cleavage kobs at 160 uM GlcN6P,[4],0.000165 ± 2.7e-05 s⁻¹
same,self-cleavage kobs at 640 uM GlcN6P,[5],0.000767 ± 0.00012 s⁻¹
same,self-cleavage kobs at 2500 uM GlcN6P,[6],0.00138 ± 0.00023 s⁻¹
same,self-cleavage kobs at 10000 uM GlcN6P,[7],0.00293 ± 0.00042 s⁻¹
AUAAAAGCGCCAGAACUACAGAAAUGUACUUGACGAGGCGGAGGUUUAUCGAAUUUUCGGCGGAUGCCUCCAAA,kcat,[1],0.000582 ± 8.5e-05 s⁻¹
same,KM,[2],4360 ± 1100 µM
same,self-cleavage kobs at 160 uM GlcN6P,[4],6.14e-05 ± 2.9e-05 s⁻¹
same,self-cleavage kobs at 640 uM GlcN6P,[5],7.25e-05 ± 1.1e-05 s⁻¹
same,self-cleavage kobs at 2500 uM GlcN6P,[6],0.000212 ± 3e-05 s⁻¹
same,self-cleavage kobs at 10000 uM GlcN6P,[7],0.000406 ± 4.2e-05 s⁻¹
AUAAAAGCGCCAGAACUACAGAAAUGUACUUGACGAGGAGGAGGUUUAUCGAAUUUUCGGCGGAUGCCUCGAAA,kcat,[1],8.64e-05 ± 1.2e-05 s⁻¹
same,self-cleavage kobs at 160 uM GlcN6P,[4],5.06e-05 ± 1.3e-05 s⁻¹
same,self-cleavage kobs at 640 uM GlcN6P,[5],3.96e-05 ± 1.4e-05 s⁻¹
same,self-cleavage kobs at 2500 uM GlcN6P,[6],8.9e-05 ± 1.2e-05 s⁻¹
same,self-cleavage kobs at 10000 uM GlcN6P,[7],8.49e-05 ± 1e-05 s⁻¹
AUAAAAGCGCCAGAACUACAGAAAUGUACUUGACGAGGAGGAGGUUUAUCGAAUUUUCGGCGGAUGCCUCAAAA,kcat,[1],0.000154 ± 3.1e-05 s⁻¹
same,self-cleavage kobs at 640 uM GlcN6P,[5],0.000104 ± 1.9e-05 s⁻¹
same,self-cleavage kobs at 2500 uM GlcN6P,[6],0.000119 ± 2.7e-05 s⁻¹
same,self-cleavage kobs at 10000 uM GlcN6P,[7],0.000253 ± 7.8e-05 s⁻¹
AUAAAAGCGCCAGAACUACAGAAAUGUACUUGACGAGGAGGAGGUUUAUCGAAUUUUCGGCGGAUGCGUCCAAA,kcat,[1],2.94e-05 ± 9e-06 s⁻¹
same,self-cleavage kobs at 640 uM GlcN6P,[5],5.49e-05 ± 1.9e-05 s⁻¹
same,self-cleavage kobs at 2500 uM GlcN6P,[6],3.19e-05 ± 1.5e-05 s⁻¹
AUAAAAGCGCCAGAACUACAGAAAUGUACUUUUCGAGGAGGAGGUUUAUGGAAUUGUCGGCGGAUCCCCCCAAA,kcat,[1],1.64e-05 ± 5.6e-06 s⁻¹
AUAAAAGCGCCAGAACUACAGAAAUGUACGUGACGAGGAGGAGGUUUAUCGAAUUUUCGGCGGAUGCCUCCAAA,kcat,[1],0.00361 ± 0.0014 s⁻¹
same,self-cleavage kobs at 40 uM GlcN6P,[3],8.92e-05 ± 1.8e-05 s⁻¹
same,self-cleavage kobs at 160 uM GlcN6P,[4],0.000309 ± 6.9e-05 s⁻¹
same,self-cleavage kobs at 640 uM GlcN6P,[5],0.00138 ± 0.00041 s⁻¹
same,self-cleavage kobs at 2500 uM GlcN6P,[6],0.00147 ± 0.00036 s⁻¹
same,self-cleavage kobs at 10000 uM GlcN6P,[7],0.00472 ± 0.00086 s⁻¹
AUAAAAGCGCCAGAACUACAGAAAUGUACUUGACGAGGAGGAGGUUUAUCGAAUUUUCGGCGGAUGGCUCCAAA,kcat,[1],8e-05 ± 4.8e-06 s⁻¹
same,KM,[2],1430 ± 280 µM
same,self-cleavage kobs at 2500 uM GlcN6P,[6],4.84e-05 ± 1.1e-05 s⁻¹
same,self-cleavage kobs at 10000 uM GlcN6P,[7],7.18e-05 ± 1.4e-05 s⁻¹
AUAAAAGCGCCAGAACUACAGAAAUGUAAUUGACGAGGAGGAGGUUUAUCGAAUGUUCGGCGGAUGCCUCCAAA,kcat,[1],0.00132 ± 0.00029 s⁻¹
same,KM,[2],2980 ± 960 µM
same,self-cleavage kobs at 160 uM GlcN6P,[4],5.56e-05 ± 1.3e-05 s⁻¹
same,self-cleavage kobs at 640 uM GlcN6P,[5],0.000305 ± 6.3e-05 s⁻¹
same,self-cleavage kobs at 2500 uM GlcN6P,[6],0.000622 ± 0.00011 s⁻¹
same,self-cleavage kobs at 10000 uM GlcN6P,[7],0.000954 ± 0.00021 s⁻¹
AUAAAAGCGCCAGAACUACAGAAAUGUAAUUGACGAGGAGGAGGUUUAUCGAAUAUUCGGCGGAUGCCUCCAAA,kcat,[1],0.00461 ± 0.0011 s⁻¹
same,KM,[2],1320 ± 440 µM
same,self-cleavage kobs at 40 uM GlcN6P,[3],0.000165 ± 2e-05 s⁻¹
same,self-cleavage kobs at 160 uM GlcN6P,[4],0.000532 ± 9.2e-05 s⁻¹
same,self-cleavage kobs at 640 uM GlcN6P,[5],0.00123 ± 0.00015 s⁻¹
same,self-cleavage kobs at 2500 uM GlcN6P,[6],0.00332 ± 0.00066 s⁻¹
same,self-cleavage kobs at 10000 uM GlcN6P,[7],0.00456 ± 0.00065 s⁻¹
AUAAAAGCGCCAGAACUACAGAAAUGUACUUGACGAGGAGGAGGUUUAUCGACUUUUCGGCGGAUGCCUCCAAA,kcat,[1],0.000417 ± 2.8e-05 s⁻¹
same,KM,[2],1380 ± 180 µM
same,self-cleavage kobs at 160 uM GlcN6P,[4],4.1e-05 ± 1.7e-05 s⁻¹
same,self-cleavage kobs at 640 uM GlcN6P,[5],0.00013 ± 1.7e-05 s⁻¹
same,self-cleavage kobs at 2500 uM GlcN6P,[6],0.00029 ± 4.5e-05 s⁻¹
same,self-cleavage kobs at 10000 uM GlcN6P,[7],0.000356 ± 5.1e-05 s⁻¹
AUAAAAGCGCCAGAACUACAGAAAUGUACUUGACGAGGAGGAGGUUUAUCGAGUUUUCGGCGGAUGCCUCCAAA,kcat,[1],0.00235 ± 0.00053 s⁻¹
same,KM,[2],2630 ± 900 µM
same,self-cleavage kobs at 40 uM GlcN6P,[3],4.79e-05 ± 7.8e-06 s⁻¹
same,self-cleavage kobs at 160 uM GlcN6P,[4],0.000154 ± 2.3e-05 s⁻¹
same,self-cleavage kobs at 640 uM GlcN6P,[5],0.000398 ± 5.6e-05 s⁻¹
same,self-cleavage kobs at 2500 uM GlcN6P,[6],0.000948 ± 0.00014 s⁻¹
same,self-cleavage kobs at 10000 uM GlcN6P,[7],0.00209 ± 0.00021 s⁻¹
AUAAAAGCGCCAGAACUACAGAAAUGUACUUGACGAGGAGGAGGUUUAUCGAAUUUUCGGCGGAUGCCUACAAA,kcat,[1],4.11e-05 ± 9.8e-06 s⁻¹
same,self-cleavage kobs at 160 uM GlcN6P,[4],2.35e-05 ± 1.1e-05 s⁻¹
same,self-cleavage kobs at 640 uM GlcN6P,[5],5.19e-05 ± 9.6e-06 s⁻¹
same,self-cleavage kobs at 2500 uM GlcN6P,[6],4.33e-05 ± 9.8e-06 s⁻¹
AUAAAAGCGCCAGAACUACAGAAAUGUACUUGACGAGAAGGAGGUUUAUCGAAUUUUCGGCGGAUGCCUCCAAA,kcat,[1],< 1e-05 s⁻¹
same,self-cleavage kobs at 40 uM GlcN6P,[3],< 1e-05 s⁻¹
same,self-cleavage kobs at 10000 uM GlcN6P,[7],< 1e-05 s⁻¹
AUAAAAGCGCCAGAACUACAGAAAUGUACUUGACGAGGAAGAGGUUUAUCGAAUUUUCGGCGGAUGCCUCCAAA,kcat,[1],0.000208 ± 2.8e-05 s⁻¹
same,KM,[2],747 ± 260 µM
same,self-cleavage kobs at 160 uM GlcN6P,[4],3.05e-05 ± 9.1e-06 s⁻¹
same,self-cleavage kobs at 640 uM GlcN6P,[5],0.000102 ± 1.6e-05 s⁻¹
same,self-cleavage kobs at 2500 uM GlcN6P,[6],0.000221 ± 3.6e-05 s⁻¹
same,self-cleavage kobs at 10000 uM GlcN6P,[7],0.000178 ± 2.1e-05 s⁻¹
AUAAAAGCGCCAGAACUACAGAAAUGUACUUGACGAGGAGGAGGUUUAUCGAAUUUUUGGCGGAUGCCUCCAAA,kcat,[1],5.79e-05 ± 8.3e-06 s⁻¹
same,self-cleavage kobs at 40 uM GlcN6P,[3],< 1e-05 s⁻¹
same,self-cleavage kobs at 2500 uM GlcN6P,[6],2.68e-05 ± 9.9e-06 s⁻¹
same,self-cleavage kobs at 10000 uM GlcN6P,[7],4.86e-05 ± 8e-06 s⁻¹
